Data set [1] addresses T1, Vts1 (Saccharomyces cerevisiae, UniProt Q08831 1-523).
T1 sequence: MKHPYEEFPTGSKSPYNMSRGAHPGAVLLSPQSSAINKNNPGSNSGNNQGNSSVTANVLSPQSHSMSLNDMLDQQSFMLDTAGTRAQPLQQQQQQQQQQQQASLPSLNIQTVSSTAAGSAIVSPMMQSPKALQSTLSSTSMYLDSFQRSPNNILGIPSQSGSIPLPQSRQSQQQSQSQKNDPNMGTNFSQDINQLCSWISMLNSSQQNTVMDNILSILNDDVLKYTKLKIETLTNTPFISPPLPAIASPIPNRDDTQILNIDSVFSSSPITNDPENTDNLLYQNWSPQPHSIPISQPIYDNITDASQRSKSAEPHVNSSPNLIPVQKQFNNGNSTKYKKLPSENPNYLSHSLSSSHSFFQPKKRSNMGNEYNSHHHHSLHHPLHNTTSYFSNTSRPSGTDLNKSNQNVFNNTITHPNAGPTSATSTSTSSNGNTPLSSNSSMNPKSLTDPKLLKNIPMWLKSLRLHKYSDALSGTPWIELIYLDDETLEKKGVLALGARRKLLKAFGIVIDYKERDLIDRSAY
Put plainly: competition.

Data set [2] has as its target T1, Vts1. Put plainly: EMSA. For orientation: In EMSA bound probe runs differently from free probe, usually more slowly.
The next data set concerns the target T2, Vts1-A498Q (Saccharomyces cerevisiae, UniProt Q08831 1-523, A498Q).
T2 sequence: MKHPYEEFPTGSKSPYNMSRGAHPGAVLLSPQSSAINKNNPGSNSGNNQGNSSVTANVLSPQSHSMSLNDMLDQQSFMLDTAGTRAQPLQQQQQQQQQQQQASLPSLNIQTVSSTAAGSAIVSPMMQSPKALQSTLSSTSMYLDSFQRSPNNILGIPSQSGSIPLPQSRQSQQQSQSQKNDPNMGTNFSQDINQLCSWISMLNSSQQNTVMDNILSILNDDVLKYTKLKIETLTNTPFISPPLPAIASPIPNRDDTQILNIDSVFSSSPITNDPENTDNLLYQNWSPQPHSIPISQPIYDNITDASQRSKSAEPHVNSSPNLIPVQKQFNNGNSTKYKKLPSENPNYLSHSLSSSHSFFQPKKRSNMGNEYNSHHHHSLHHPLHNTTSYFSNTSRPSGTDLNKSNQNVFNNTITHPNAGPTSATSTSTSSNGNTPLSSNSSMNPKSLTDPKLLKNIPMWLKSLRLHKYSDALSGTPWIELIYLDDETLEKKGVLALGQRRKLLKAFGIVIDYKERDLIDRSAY
The data set is described as follows: EMSA.

B1: dsDNA 50-bp (dsDNA)
DNA 1: GAAAACATTATTAATGGCGTCGAGCTAGGCACAAGGCGAACTGCTAACGG
DNA 2: CCGTTAGCAGTTCGCCTTGTGCCTAGCTCGACGCCATTAATAATGTTTTC
Consider B1, for which, in the data set with Vts1 [1], the binding result was “binds”.

In the case of GCUCGAGGCUCUGGCAGCCUCGAGC (structured_RNA) [SRE-RNA], the binding result is listed as “binds” in the data set with Vts1 [2] and “no binding” in the data set with Vts1-A498Q.

Values taken from article PMC2836565.
